{
  "source": "patent US20030077661A1",
  "about": "(ST JUDE CHILDREN S RESEARCH HOSPITAL, published 2003)",
  "key": {"[1]": {"target": "T1, 6×-Histidine (6×-His) fusion protein containing the C-terminal kinase domain of ATM, residues 2712-3056 (Homo sapiens (Human), UniProt Q13315 2712-3056)", "T1 construct": "also called ATM kinase domain; not shown: 6×-His tag from pET28", "T1 sequence": "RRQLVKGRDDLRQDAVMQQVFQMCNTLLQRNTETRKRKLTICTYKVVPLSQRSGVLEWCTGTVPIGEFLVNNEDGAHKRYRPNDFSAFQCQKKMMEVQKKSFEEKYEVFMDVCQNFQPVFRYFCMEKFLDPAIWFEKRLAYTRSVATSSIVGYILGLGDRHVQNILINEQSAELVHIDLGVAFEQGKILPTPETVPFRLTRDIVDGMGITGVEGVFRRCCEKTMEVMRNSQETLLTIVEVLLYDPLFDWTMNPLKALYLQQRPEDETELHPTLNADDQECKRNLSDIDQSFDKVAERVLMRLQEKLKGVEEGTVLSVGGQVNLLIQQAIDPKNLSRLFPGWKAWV", "test": "co-expression in E. coli; kinase domain remained insoluble", "excerpt": "A further aspect of the invention provides a method of producing soluble ATM kinase by contacting the kinase domain of ATM with a fragment of ATM kinase containing Ser¹⁹⁸¹. […] Although the kinase domain was insoluble in bacteria when co-transfected with GST alone or a GST fusion with the ATM target peptide p53 (residues 1-101), a significant percentage was stabilized and solubilized in the presence of the GST-ATM¹⁹⁶¹⁻²⁰⁴⁶ fusion protein. The kinase domain was also solubilized in the presence of the GST-ATM¹⁹⁶¹⁻²⁰⁴⁶ fusion protein containing Ser¹⁹⁸¹→Ala, but remained insoluble in the presence of phosphorylation-mimic fusion peptides, Ser¹⁹⁸¹→Asp and Ser¹⁹⁸¹→Glu. Furthermore, the soluble kinase domain co-purified on glutathione-agarose with the GST-ATM¹⁹⁶¹⁻²⁰⁴⁶ fusion proteins containing wild-type sequence or Ser¹⁹⁸¹→Ala."}, "[2]": {"target": "the molecule itself", "test": "SDS-PAGE of the purified fragment (self-association)", "description": "As the ATM kinase domain interacts stably with the domain containing the autophosphorylation site, it was determined whether a truncated recombinant ATM molecule that included the phosphorylation and kinase domains would fold properly and have kinase activity. A galactose-inducible pYES plasmid containing 6×-His-FLAG®-tagged ATM¹⁹²³⁻³⁰⁵⁶ was transfected into Saccharomyces cerevisiae and a soluble ATM fragment was recovered. The polypeptide was purified by anti-FLAG® affinity chromatography."}},
  "data": [
    {"binder": "GST-ATM^1961-2046 phosphorylation-mimic fusion peptide Ser^1981→Asp (other, not shown: glutathione-S-transferase (GST) as encoded by pGEX-4T-1) YADKKSMDDQEKRSLAFEEGDQSTTISSLSEKSKEETGISLQDLLLEIYRSIGEPDSLYGCGGGKMLQPITRLRTYEHEAMWGKAL", "values": [
      {"measurement": "binding result", "setting": "[1]", "result": "no binding"}
    ]},
    {"binder": "GST-ATM^1961-2046 phosphorylation-mimic fusion peptide Ser^1981→Glu (other, not shown: glutathione-S-transferase (GST) as encoded by pGEX-4T-1) YADKKSMDDQEKRSLAFEEGEQSTTISSLSEKSKEETGISLQDLLLEIYRSIGEPDSLYGCGGGKMLQPITRLRTYEHEAMWGKAL", "values": [
      {"measurement": "binding result", "setting": "[1]", "result": "no binding"}
    ]},
    {"binder": "6×-His-FLAG®-tagged ATM^1923-3056 (enzyme, Expressed in S. cerevisiae from pYES2; also called soluble ATM fragment; truncated recombinant ATM; not shown: N-terminal 6×-His and FLAG tags) SSGTIFNDAFWLDLNYLEVAKVAQSCAAHFTALLYAEIYADKKSMDDQEKRSLAFEEGSQSTTISSLSEKSKEETGISLQDLLLEIYRSIGEPDSLYGCGGGKMLQPITRLRTYEHEAMWGKALVTYDLETAIPSSTRQAGIIQALQNLGLCHILSVYLKGLDYENKDWCPELEELHYQAAWRNMQWDHCTSVSKEVEGTSYHESLYNALQSLRDREFSTFYESLKYARVKEVEEMCKRSLESVYSLYPTLSRLQAIGELESIGELFSRSVTHRQLSEVYIKWQKHSQLLKDSDFSFQEPIMALRTVILEILMEKEMDNSQRECIKDILTKHLVELSILARTFKNTQLPERAIFQIKQYNSVSCGVSEWQLEEAQVFWAKKEQSLALSILKQMIKKLDASCAANNPSLKLTYTECLRVCGNWLAETCLENPAVIMQTYLEKAVEVAGNYDGESSDELRNGKMKAFLSLARFSDTQYQRIENYMKSSEFENKQALLKRAKEEVGLLREHKIQTNRYTVKVQRELELDELALRALKEDRKRFLCKAVENYINCLLSGEEHDMWVFRLCSLWLENSGVSEVNGMMKRDGMKIPTYKFLPLMYQLAARMGTKMMGGLGFHEVLNNLISRISMDHPHHTLFIILALANANRDEFLTKPEVARRSRITKNVPKQSSQLDEDRTEAANRIICTIRSRRPQMVRSVEALCDAYIILANLDATQWKTQRKGINIPADQPITKLKNLEDVVVPTMEIKVDHTGEYGNLVTIQSFKAEFRLAGGVNLPKIIDCVGSDGKERRQLVKGRDDLRQDAVMQQVFQMCNTLLQRNTETRKRKLTICTYKVVPLSQRSGVLEWCTGTVPIGEFLVNNEDGAHKRYRPNDFSAFQCQKKMMEVQKKSFEEKYEVFMDVCQNFQPVFRYFCMEKFLDPAIWFEKRLAYTRSVATSSIVGYILGLGDRHVQNILINEQSAELVHIDLGVAFEQGKILPTPETVPFRLTRDIVDGMGITGVEGVFRRCCEKTMEVMRNSQETLLTIVEVLLYDPLFDWTMNPLKALYLQQRPEDETELHPTLNADDQECKRNLSDIDQSFDKVAERVLMRLQEKLKGVEEGTVLSVGGQVNLLIQQAIDPKNLSRLFPGWKAWV", "values": [
      {"measurement": "binding result", "setting": "[2]", "result": "binds"}
    ]}
  ]
}
